B1: PLAGL1 (parent)
chain: CKDFLCQFCAQRFGRKDHLTRHTK

Variants of: B1
Assay: protein stability index of a GFP-peptide fusion (GPS, HEK-293T) (PSI 1-6); higher = more stable
Details: c terminus: a fixed tail appended
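Note: lentivirally expressed fusions sorted by FACS into six bins by GFP to DsRed ratio, PSI derived from sequencing read proportions per bin multiplied by bin number.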

Protein stability index: each site, then its substitutions
F8: V 2.18; Y 1.77; E 2.62; G 2.32; L 2.89; C 3.64; Q 2.51; S 2.19; D 3.12; W 1.6; K 2.69; P 2.47; H 2.87; T 2.81; M 2.19; N 2.82; R 3.32; A 2.94; I 1.93
Q7: R 2.08; T 2.35; K 2.21; V 2.02; C 1.52; D 2.2; L 1.29; H 1.96; A 2.38; E 2.25; P 2.23; S 1.76; Y 2.06; G 2.09; F 1.74; M 2.29; N 1.74; W 2.57
C6: P 2.38; V 1.89; Y 2.1; M 1.48; K 1.4; F 1.78; L 1.99; H 2.25; E 2.63; W 1.78; I 1.62; N 1.76; R 1.41; D 2.17; A 2.18; Q 2.34; G 1.84; S 1.58; T 2.04
R12: H 2.38; A 1.97; Y 2; C 2.86; S 2.16; W 2.14; N 2.22; D 1.65; E 2.13; K 3.04; M 1.94; F 1.68; P 1.81; Q 1.23; I 2.6; L 1.47; G 2.54; T 1.88; V 2.33
C9: W 2; R 1.45; S 2.03; Y 1.47; M 1.79; T 1.93; G 2.14; N 2.58; H 2.11; V 2.46; F 1.11; D 2.11; I 2.56; K 2.42; Q 2.72; P 3.17; L 2.22; E 2; A 2.05
Q11: E 2.14; L 2.29; N 2.01; S 3.17; M 2.22; F 1.82; T 1.75; W 1.76; G 2.44; H 1.67; Y 1.51; C 1.85; D 1.75; P 2.07; A 1.84; K 2.02; R 2.3; I 1.82; V 2.04
L5: W 1.93; Y 1.82
G14: A 2.63; L 1.96; E 2.78; K 2; M 2.59; P 2.46; N 2.46; S 2.72; Q 1.98; R 2.12; C 2.37; F 1.79; H 2.13; I 2.08; D 2.14
A10: S 2.24; N 1.96; I 1.83; C 2.19; E 1.69; M 1.65; Y 2.16; T 1.96; P 2.03; K 2.48; Q 1.44; D 1.87; G 1.79; R 2.14; W 1.67; F 1.96; V 2.16; H 1.9; L 1.79
F13: D 2.65; V 2.03; E 2.86; R 2.54; W 2.33; S 3.21; A 1.91; M 2.88; H 2.31; I 2.02; L 2.44; Y 1.99; C 3.07; K 3.02; P 2.35; Q 2.45; T 2.23; N 2.35

From the supplement of paper PMC10567573
